By Kd is commonly meant a measure of binding affinity in units of concentration. Higher therefore signals lower affinity.

The target in the assay is T1, peptide corresponding to the N-terminal domain of CXCR4 (biotinylated (position not given)).
T1 construct: Synthetic peptide (ABclonal), biotinylated and captured on neutravidin-coated plates; also called CXCR4 N-terminal domain; NTD of CXCR4
T1 peptide: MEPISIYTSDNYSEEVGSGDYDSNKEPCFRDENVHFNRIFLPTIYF
Kind of assay: ELISA; serially diluted scFv on biotinylated CXCR4 N-terminal peptide captured on neutravidin. The protocol: The binding affinity of the anti-CXCR4 scFv was assessed with an ELISA. Purified anti-CXCR4 scFvs were serially diluted and added to a 96-well plate that was first coated with neutravidin and then coated with the biotinylated CXCR4 N-terminal peptide domain. Anti-FLAG-HRP conjugate (Sigma Aldrich) served as the primary antibody. 100 μL of Ultra-TMB substrate (Thermo Fisher Scientific) was added to quantify the amount of bound anti-CXCR4 scFv. The reaction was then quenched with 12.5 M H₂SO₄ aqueous solution. Readings were taken using a plate reader with the wavelength set to 450 nm.
On the technique in general: An ELISA detects its analyte on a solid surface through an enzyme-linked reagent.

B1: CXCR4-scFv (scFv)
scFv: QSVLTQPPSASGTPGQRVTISCSGSSSNIGSNYVYWYQQLPGTAPKLLIYRNNQRPSGVPDRFSGSKSGTSASLAISGLRSEDEGDYYCATWDDSLSGVVFGGGTKLTVLGEGKSSGSGSESKASQVTLKESGAEVKKPGASVKVSCKASGYTFTNFYIHWVRRAPGQGLEWMGIINPSDGRTTYAQKFQGRVTMTRDTSTSTLYMELTSLRSEDTAVYYCGRGGHYSNYFGQPSTWGQGTLVTVSVEASHHHHHH
modifications: labeled with DyLight 650 (NHS ester) in the cell binding and imaging assays; unlabeled in the ELISA
notes: also called scFv#c; anti-CXCR4 scFv
For the molecule B1, binding was characterised by a dissociation constant (Kd) of 114 nM.

Values taken from patent US20220281986A1 (RESEARCH FOUNDATION FOR THE STATE UNIVERSITY OF NEW YORK, published 2022).
